Measurements as given in patent US20250206821A1 (Hoffmann-La Roche, published 2025).

T1: VEGF (UniProt P15692-9 27-147)
T1 construct: also called VEGF121
T1 sequence (looked up): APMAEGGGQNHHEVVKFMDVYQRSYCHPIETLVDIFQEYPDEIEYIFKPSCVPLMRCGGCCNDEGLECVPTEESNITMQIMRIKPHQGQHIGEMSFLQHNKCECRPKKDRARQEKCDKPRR


Key:
VEGF [1] = target: T1, VEGF; assay: bridging ELISA on exchange reaction mix; VEGF capture, biocytinamid-Cy5 detection; input 1.3 µM; highest value of the assay = 100%
VEGF [2] = target: T1, VEGF; assay: bridging ELISA, VEGF capture, biocytinamid-Cy5 detection; background signal
VEGF [3] = target: T1, VEGF; assay: bridging ELISA, VEGF capture, digoxygenin-Cy5 detection; background signal
VEGF [4] = target: T1, VEGF; assay: bridging ELISA on exchange reaction mix; VEGF capture, digoxygenin-Cy5 detection; input 1.3 µM; highest value of the assay = 100%
VEGF [5] = target: T1, VEGF; assay: bridging ELISA, VEGF capture, biocytinamid-Cy5 or digoxygenin-Cy5 detection; background signal

Binder	relative signal intensity (VEGF [1]) [%]	binding result (VEGF [2])	binding result (VEGF [3])	relative signal intensity (VEGF [4]) [%]	binding result (VEGF [5])
anti-bio/anti-fluos bsAb (bio 2/3-IgG with E357K MHCFcRP x fluos 2/3-IgG with K370E MHCFcRP) (bispecific antibody, Product of the 2/3-IgG exchange reaction, assayed as reaction mix; also called bio fluos) heavy 1: not shown light 1: DIQMTQSPSSLSASVGDRVTITCRASGNIHNYLSWYQQKPGKVPKLLIYSAKTLADGVPSRFSGSGSGTDFTLTISSLQPEDVATYYCQHFWSSIYTFGQGTKLEIKRTVAAPSVFIFPPSDEQLKSGTASVVCLLNNFYPREAKVQWKVDNALQSGNSQESVTEQDSKDSTYSLSSTLTLSKADYEKHKVYACEVTHQGLSSPVTKSFNRGEC heavy 2: not shown light 2: DIVMTQTPLSLSVTPGQPASISCKSSQSLVHSNGNTYLRWYLQKPGQSPKVLIYKVSNRVSGVPDRFSGSGSGTDFTLKISRVEAEDVGVYYCSQSTHVPWTFGQGTKLEIKRTVAAPSVFIFPPSDEQLKSGTASVVCLLNNFYPREAKVQWKVDNALQSGNSQESVTEQDSKDSTYSLSSTLTLSKADYEKHKVYACEVTHQGLSSPVTKSFNRGEC	9	no binding (tested: input molecule concentration 1.3 µM)			
anti-PDGF/anti-bio bsAb (PDGF 2/3-IgG with E357K MHCFcRP x bio 2/3-IgG with K370E MHCFcRP) (bispecific antibody, Product of the 2/3-IgG exchange reaction, assayed as reaction mix; also called PDGF bio; not shown: residue limits no) heavy 1: EVQLVESGGGLVQPGGSLRLSCAASGFTFSSYWMSWVRQAPEKGLEWVSTISDGGGLTYYADSVKGRFTISRDNAKNSLYLQMNSLRAEDTAVYYCAESGGYTDWLFGYWGQGTLVTVSSASTKGPSVFPLAPSSKSTSGGTAALGCLVKDYFPEPVTVSWNSGALTSGVHTFPAVLQSSGLYSLSSVVTVPSSSLGTQTYICNVNHKPSNTKVDKKVEPKSC light 1: not shown heavy 2: not shown light 2: DIQMTQSPSSLSASVGDRVTITCRASGNIHNYLSWYQQKPGKVPKLLIYSAKTLADGVPSRFSGSGSGTDFTLTISSLQPEDVATYYCQHFWSSIYTFGQGTKLEIKRTVAAPSVFIFPPSDEQLKSGTASVVCLLNNFYPREAKVQWKVDNALQSGNSQESVTEQDSKDSTYSLSSTLTLSKADYEKHKVYACEVTHQGLSSPVTKSFNRGEC	10.5	no binding (tested: input molecule concentration 1.3 µM)			
anti-dig/anti-fluos bsAb (dig 2/3-IgG with E357K MHCFcRP x fluos 2/3-IgG with K370E MHCFcRP) (bispecific antibody, Product of the 2/3-IgG exchange reaction, assayed as reaction mix; also called dig fluos; not shown: residue limits no) heavy 1: QVQLVESGGGLVKPGGSLRLSCAASGFTFSDYAMSWIRQAPGKGLEWVSSINIGATYIYYADSVKGRFTISRDNAKNSLYLQMNSLRAEDTAVYYCARPGSPYEYDKAYYSMAYWGQGTTVTVSSASTKGPSVFPLAPSSKSTSGGTAALGCLVKDYFPEPVTVSWNSGALTSGVHTFPAVLQSSGLYSLSSVVTVPSSSLGTQTYICNVNHKPSNTKVDKKVEPKSC light 1: not shown heavy 2: not shown light 2: DIVMTQTPLSLSVTPGQPASISCKSSQSLVHSNGNTYLRWYLQKPGQSPKVLIYKVSNRVSGVPDRFSGSGSGTDFTLKISRVEAEDVGVYYCSQSTHVPWTFGQGTKLEIKRTVAAPSVFIFPPSDEQLKSGTASVVCLLNNFYPREAKVQWKVDNALQSGNSQESVTEQDSKDSTYSLSSTLTLSKADYEKHKVYACEVTHQGLSSPVTKSFNRGEC			no binding (tested: input molecule concentration 1.3 µM)	6.7	
anti-dig/anti-bio bsAb (dig 2/3-IgG with E357K MHCFcRP x bio 2/3-IgG with K370E MHCFcRP) (bispecific antibody, Product of the 2/3-IgG exchange reaction, assayed as reaction mix; also called dig bio; not shown: residue limits no) heavy 1: QVQLVESGGGLVKPGGSLRLSCAASGFTFSDYAMSWIRQAPGKGLEWVSSINIGATYIYYADSVKGRFTISRDNAKNSLYLQMNSLRAEDTAVYYCARPGSPYEYDKAYYSMAYWGQGTTVTVSSASTKGPSVFPLAPSSKSTSGGTAALGCLVKDYFPEPVTVSWNSGALTSGVHTFPAVLQSSGLYSLSSVVTVPSSSLGTQTYICNVNHKPSNTKVDKKVEPKSC light 1: not shown heavy 2: not shown light 2: DIQMTQSPSSLSASVGDRVTITCRASGNIHNYLSWYQQKPGKVPKLLIYSAKTLADGVPSRFSGSGSGTDFTLTISSLQPEDVATYYCQHFWSSIYTFGQGTKLEIKRTVAAPSVFIFPPSDEQLKSGTASVVCLLNNFYPREAKVQWKVDNALQSGNSQESVTEQDSKDSTYSLSSTLTLSKADYEKHKVYACEVTHQGLSSPVTKSFNRGEC	9			6.2	no binding (tested: input molecule concentration 1.3 µM)
anti-fluos/anti-dig bsAb (fluos 2/3-IgG with E357K MHCFcRP x dig 2/3-IgG with K370E MHCFcRP) (bispecific antibody, Product of the 2/3-IgG exchange reaction, assayed as reaction mix; also called fluos dig; not shown: residue limits no) heavy 1: not shown light 1: DIVMTQTPLSLSVTPGQPASISCKSSQSLVHSNGNTYLRWYLQKPGQSPKVLIYKVSNRVSGVPDRFSGSGSGTDFTLKISRVEAEDVGVYYCSQSTHVPWTFGQGTKLEIKRTVAAPSVFIFPPSDEQLKSGTASVVCLLNNFYPREAKVQWKVDNALQSGNSQESVTEQDSKDSTYSLSSTLTLSKADYEKHKVYACEVTHQGLSSPVTKSFNRGEC heavy 2: QVQLVESGGGLVKPGGSLRLSCAASGFTFSDYAMSWIRQAPGKGLEWVSSINIGATYIYYADSVKGRFTISRDNAKNSLYLQMNSLRAEDTAVYYCARPGSPYEYDKAYYSMAYWGQGTTVTVSSASTKGPSVFPLAPSSKSTSGGTAALGCLVKDYFPEPVTVSWNSGALTSGVHTFPAVLQSSGLYSLSSVVTVPSSSLGTQTYICNVNHKPSNTKVDKKVEPKSC light 2: not shown			no binding (tested: input molecule concentration 1.3 µM)	6.3	
anti-bio/anti-PDGF bsAb (bio 2/3-IgG with E357K MHCFcRP x PDGF 2/3-IgG with K370E MHCFcRP) (bispecific antibody, Product of the 2/3-IgG exchange reaction, assayed as reaction mix; also called bio PDGF; not shown: residue limits no) heavy 1: not shown light 1: DIQMTQSPSSLSASVGDRVTITCRASGNIHNYLSWYQQKPGKVPKLLIYSAKTLADGVPSRFSGSGSGTDFTLTISSLQPEDVATYYCQHFWSSIYTFGQGTKLEIKRTVAAPSVFIFPPSDEQLKSGTASVVCLLNNFYPREAKVQWKVDNALQSGNSQESVTEQDSKDSTYSLSSTLTLSKADYEKHKVYACEVTHQGLSSPVTKSFNRGEC heavy 2: EVQLVESGGGLVQPGGSLRLSCAASGFTFSSYWMSWVRQAPEKGLEWVSTISDGGGLTYYADSVKGRFTISRDNAKNSLYLQMNSLRAEDTAVYYCAESGGYTDWLFGYWGQGTLVTVSSASTKGPSVFPLAPSSKSTSGGTAALGCLVKDYFPEPVTVSWNSGALTSGVHTFPAVLQSSGLYSLSSVVTVPSSSLGTQTYICNVNHKPSNTKVDKKVEPKSC light 2: not shown	10.1	no binding (tested: input molecule concentration 1.3 µM)			
anti-fluos/anti-bio bsAb (fluos 2/3-IgG with E357K MHCFcRP x bio 2/3-IgG with K370E MHCFcRP) (bispecific antibody, Product of the 2/3-IgG exchange reaction, assayed as reaction mix; also called fluos bio) heavy 1: not shown light 1: DIVMTQTPLSLSVTPGQPASISCKSSQSLVHSNGNTYLRWYLQKPGQSPKVLIYKVSNRVSGVPDRFSGSGSGTDFTLKISRVEAEDVGVYYCSQSTHVPWTFGQGTKLEIKRTVAAPSVFIFPPSDEQLKSGTASVVCLLNNFYPREAKVQWKVDNALQSGNSQESVTEQDSKDSTYSLSSTLTLSKADYEKHKVYACEVTHQGLSSPVTKSFNRGEC heavy 2: not shown light 2: DIQMTQSPSSLSASVGDRVTITCRASGNIHNYLSWYQQKPGKVPKLLIYSAKTLADGVPSRFSGSGSGTDFTLTISSLQPEDVATYYCQHFWSSIYTFGQGTKLEIKRTVAAPSVFIFPPSDEQLKSGTASVVCLLNNFYPREAKVQWKVDNALQSGNSQESVTEQDSKDSTYSLSSTLTLSKADYEKHKVYACEVTHQGLSSPVTKSFNRGEC	10.2	no binding (tested: input molecule concentration 1.3 µM)			
anti-bio/anti-dig bsAb (bio 2/3-IgG with E357K MHCFcRP x dig 2/3-IgG with K370E MHCFcRP) (bispecific antibody, Product of the 2/3-IgG exchange reaction, assayed as reaction mix; also called bio dig; not shown: residue limits no) heavy 1: not shown light 1: DIQMTQSPSSLSASVGDRVTITCRASGNIHNYLSWYQQKPGKVPKLLIYSAKTLADGVPSRFSGSGSGTDFTLTISSLQPEDVATYYCQHFWSSIYTFGQGTKLEIKRTVAAPSVFIFPPSDEQLKSGTASVVCLLNNFYPREAKVQWKVDNALQSGNSQESVTEQDSKDSTYSLSSTLTLSKADYEKHKVYACEVTHQGLSSPVTKSFNRGEC heavy 2: QVQLVESGGGLVKPGGSLRLSCAASGFTFSDYAMSWIRQAPGKGLEWVSSINIGATYIYYADSVKGRFTISRDNAKNSLYLQMNSLRAEDTAVYYCARPGSPYEYDKAYYSMAYWGQGTTVTVSSASTKGPSVFPLAPSSKSTSGGTAALGCLVKDYFPEPVTVSWNSGALTSGVHTFPAVLQSSGLYSLSSVVTVPSSSLGTQTYICNVNHKPSNTKVDKKVEPKSC light 2: not shown	9.3			6.2	no binding (tested: input molecule concentration 1.3 µM)
